Test results from paper PMC9482650, “Quantitative fragmentomics allow affinity mapping of interactomes” (Nature Communications, 2022).
Each block holds one binder with its values, some of them ahead of it.

Assays:
Test in all cases: holdup assay
Design in all cases: key: below the threshold = too weak to quantify, mostly under pKd 3.1 to 4
Conditions in all cases: plain residues with an end cap or a label only (N-terminal biotin on a linker: ado-ado)
[1] = target: LDB3, O75112
[2] = target: T1, GRIP1_3, Q9Y3R0
T1 sequence (Q9Y3R0 247-346, limits assumed, looked up): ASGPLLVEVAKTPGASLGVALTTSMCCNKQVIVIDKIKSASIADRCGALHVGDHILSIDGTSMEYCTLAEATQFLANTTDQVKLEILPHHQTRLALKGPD

[3] = target: Inadl_10, Q8NI35
Chain of Inadl_10, Q8NI35 (Q8NI35 1673-1763): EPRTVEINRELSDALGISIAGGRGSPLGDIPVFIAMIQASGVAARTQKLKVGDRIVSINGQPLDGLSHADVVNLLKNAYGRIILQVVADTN

[4] = target: GRIP2_5, Q9C0E4
Chain of GRIP2_5, Q9C0E4 (Q9C0E4 544-642): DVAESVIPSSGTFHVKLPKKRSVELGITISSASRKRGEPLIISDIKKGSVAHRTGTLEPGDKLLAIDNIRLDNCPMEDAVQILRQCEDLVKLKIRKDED

[5] = target: T2, LIN7B, Q9HAP6
T2 sequence (Q9HAP6 88-185, limits assumed, looked up): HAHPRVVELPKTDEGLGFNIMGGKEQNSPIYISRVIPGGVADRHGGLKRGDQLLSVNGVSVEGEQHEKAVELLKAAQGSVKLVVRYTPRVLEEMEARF

[6] = target: T3, SYNJ2BP, P57105
T3 sequence (P57105 8-110, limits assumed, looked up): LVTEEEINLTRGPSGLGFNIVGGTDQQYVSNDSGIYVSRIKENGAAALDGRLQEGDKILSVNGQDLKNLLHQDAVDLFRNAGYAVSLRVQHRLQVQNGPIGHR

[7] = target: T4, SNTG1, Q9NSN8
T4 sequence (Q9NSN8 52-150, limits assumed, looked up): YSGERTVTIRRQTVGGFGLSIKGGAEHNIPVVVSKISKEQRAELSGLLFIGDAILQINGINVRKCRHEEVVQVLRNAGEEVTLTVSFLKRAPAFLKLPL

[8] = target: FRMPD2_3, Q68DX3
Chain of FRMPD2_3, Q68DX3 (Q68DX3 1073-1166): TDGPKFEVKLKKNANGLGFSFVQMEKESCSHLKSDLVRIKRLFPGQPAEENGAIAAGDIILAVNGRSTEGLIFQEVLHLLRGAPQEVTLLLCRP

[9] = target: MAGI1_2, Q96QZ7
Chain of MAGI1_2, Q96QZ7 (Q96QZ7 456-580): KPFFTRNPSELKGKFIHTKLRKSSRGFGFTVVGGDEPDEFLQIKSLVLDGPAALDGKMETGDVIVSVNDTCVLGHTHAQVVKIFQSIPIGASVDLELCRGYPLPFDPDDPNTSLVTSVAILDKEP

[10] = target: T5, DFNB31_2, Q9P202
T5 sequence (Q9P202 274-371, limits assumed, looked up): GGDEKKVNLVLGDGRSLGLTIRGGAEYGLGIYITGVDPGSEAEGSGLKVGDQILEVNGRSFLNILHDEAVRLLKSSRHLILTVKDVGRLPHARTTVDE

[11] = target: MAGI2_5, Q86UL8
Chain of MAGI2_5, Q86UL8 (Q86UL8 915-1017): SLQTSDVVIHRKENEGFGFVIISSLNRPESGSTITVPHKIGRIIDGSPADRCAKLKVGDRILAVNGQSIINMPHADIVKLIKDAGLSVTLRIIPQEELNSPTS

[12] = target: MAGI3_2, Q5TCQ9
Chain of MAGI3_2, Q5TCQ9 (Q5TCQ9 398-503): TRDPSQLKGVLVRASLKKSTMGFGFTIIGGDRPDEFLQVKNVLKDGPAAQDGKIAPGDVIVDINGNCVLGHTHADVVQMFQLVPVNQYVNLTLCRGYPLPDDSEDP

[13] = target: T6, MPP7, Q5T2T1
T6 sequence (Q5T2T1 134-230, limits assumed, looked up): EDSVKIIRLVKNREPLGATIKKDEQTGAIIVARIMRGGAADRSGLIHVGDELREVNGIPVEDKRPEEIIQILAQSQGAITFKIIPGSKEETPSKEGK

[14] = target: T7, DLG3_2, Q92796
T7 sequence (Q92796 221-321, limits assumed, looked up): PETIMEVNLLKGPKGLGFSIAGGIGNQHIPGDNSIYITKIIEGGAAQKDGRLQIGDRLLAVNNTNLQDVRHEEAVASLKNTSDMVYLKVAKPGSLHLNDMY

[15] = target: GIPC2, Q8TF65
Chain of GIPC2, Q8TF65 (Q8TF65 112-203): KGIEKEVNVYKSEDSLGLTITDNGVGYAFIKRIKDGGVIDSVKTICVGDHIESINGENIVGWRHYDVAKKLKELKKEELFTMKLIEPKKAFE

[16] = target: T8, ARHGAP21, Q5T5U3
T8 sequence (Q5T5U3 45-169, limits assumed, looked up): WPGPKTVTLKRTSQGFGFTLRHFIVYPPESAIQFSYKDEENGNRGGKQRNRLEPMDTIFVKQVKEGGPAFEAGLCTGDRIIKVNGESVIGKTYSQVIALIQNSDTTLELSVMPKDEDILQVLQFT

[17] = target: Inadl_6, Q8NI35
Chain of Inadl_6, Q8NI35 (Q8NI35 1058-1167): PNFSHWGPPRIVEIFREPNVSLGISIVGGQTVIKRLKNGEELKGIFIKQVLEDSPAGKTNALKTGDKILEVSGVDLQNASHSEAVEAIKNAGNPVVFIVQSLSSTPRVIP

[18] = target: GRIP2_7, Q9C0E4
Chain of GRIP2_7, Q9C0E4 (Q9C0E4 934-1023): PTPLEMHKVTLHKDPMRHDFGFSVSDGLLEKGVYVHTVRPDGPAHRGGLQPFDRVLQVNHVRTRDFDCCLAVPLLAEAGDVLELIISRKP

[19] = target: Inadl_2, Q8NI35
Chain of Inadl_2, Q8NI35 (Q8NI35 238-335): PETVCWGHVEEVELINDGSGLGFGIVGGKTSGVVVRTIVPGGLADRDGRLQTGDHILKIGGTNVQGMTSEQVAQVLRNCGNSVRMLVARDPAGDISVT

[20] = target: T9, NHERF3_1, Q5T2W1
T9 sequence (Q5T2W1 4-100, limits assumed, looked up): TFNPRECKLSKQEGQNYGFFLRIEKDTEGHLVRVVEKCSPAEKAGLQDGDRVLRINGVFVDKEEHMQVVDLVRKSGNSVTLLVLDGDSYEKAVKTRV

[21] = target: T10, PDZRN3_1, Q9UPQ7
T10 sequence (Q9UPQ7 244-349, limits assumed, looked up): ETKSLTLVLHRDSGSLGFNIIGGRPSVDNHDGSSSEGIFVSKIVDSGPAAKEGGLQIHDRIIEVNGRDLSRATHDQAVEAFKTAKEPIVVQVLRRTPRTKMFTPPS

[22] = target: T11, MPP6, Q9NZW5
T11 sequence (Q9NZW5 125-219, limits assumed, looked up): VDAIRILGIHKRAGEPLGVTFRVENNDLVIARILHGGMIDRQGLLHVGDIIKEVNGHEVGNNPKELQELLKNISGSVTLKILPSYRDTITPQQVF

[23] = target: T12, HTRA4, P83105
T12 sequence (P83105 378-476, limits assumed, looked up): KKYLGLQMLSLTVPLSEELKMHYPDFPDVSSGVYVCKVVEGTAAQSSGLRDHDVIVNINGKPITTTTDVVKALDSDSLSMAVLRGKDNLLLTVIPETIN

[24] = target: PICK1, Q9NRD5
Chain of PICK1, Q9NRD5 (Q9NRD5 17-115): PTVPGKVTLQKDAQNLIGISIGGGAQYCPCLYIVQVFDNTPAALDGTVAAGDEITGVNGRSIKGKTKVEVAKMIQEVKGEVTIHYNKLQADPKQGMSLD

Chain of LDB3, O75112 (O75112 1-94): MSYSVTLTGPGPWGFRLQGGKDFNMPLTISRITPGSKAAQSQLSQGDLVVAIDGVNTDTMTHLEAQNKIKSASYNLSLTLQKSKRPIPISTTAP

pKd [1]: below the threshold
pKd [2]: below the threshold
pKd [3]: below the threshold
pKd [4]: below the threshold
pKd [5]: below the threshold
pKd [6]: 5.41
pKd [7]: 3.63
pKd [8]: below the threshold
pKd [9]: 3.87
pKd [10]: below the threshold
pKd [11]: below the threshold
pKd [12]: 4.51
pKd [13]: below the threshold
pKd [14]: 3.78
pKd [15]: below the threshold
pKd [16]: below the threshold
pKd [17]: below the threshold
pKd [18]: below the threshold
pKd [19]: below the threshold
pKd [20]: below the threshold
pKd [21]: 4.33
pKd [22]: 3.77
pKd [23]: 3.9
pKd [24]: 4.14
B1: RRBP1, Q9P2E9 (peptide)
chain: GSSSKEGTSV

pKd [1]: below the threshold
pKd [2]: below the threshold
pKd [3]: below the threshold
pKd [4]: below the threshold
pKd [5]: below the threshold
pKd [6]: below the threshold
pKd [7]: below the threshold
pKd [8]: below the threshold
pKd [9]: below the threshold
pKd [10]: below the threshold
pKd [11]: below the threshold
pKd [12]: below the threshold
pKd [13]: below the threshold
pKd [14]: below the threshold
pKd [15]: below the threshold
pKd [16]: 4.08
pKd [17]: below the threshold
pKd [18]: below the threshold
pKd [19]: below the threshold
pKd [20]: 4.5
pKd [21]: below the threshold
pKd [22]: below the threshold
pKd [23]: 3.73
pKd [24]: 4.13
B2: CTBP1, Q13363 (peptide)
chain: ADRDHASDQL
